In article PMC3265493, “Inhibitory Potential of Prodomain of Plasmodium falciparum Protease Serine Repeat Antigen 5 for Asexual Blood Stages of Parasite” (PLoS ONE, 2012):

Target: T1, SERA5 catalytic domain (SERA5 C) (Plasmodium falciparum 3D7, UniProt Q9TY95 578-828)
T1 construct: Plasmodium falciparum 3D7 serine repeat antigen 5 (SERA5), PlasmoDB PFB0340c, 251-residue enzyme (catalytic) domain E578 to N828, amplified from cDNA; Cloned in pProExHTb between BamHI and XhoI with N-terminal hexahistidine tag; no tag removal is described; also called enzyme domain
T1 sequence: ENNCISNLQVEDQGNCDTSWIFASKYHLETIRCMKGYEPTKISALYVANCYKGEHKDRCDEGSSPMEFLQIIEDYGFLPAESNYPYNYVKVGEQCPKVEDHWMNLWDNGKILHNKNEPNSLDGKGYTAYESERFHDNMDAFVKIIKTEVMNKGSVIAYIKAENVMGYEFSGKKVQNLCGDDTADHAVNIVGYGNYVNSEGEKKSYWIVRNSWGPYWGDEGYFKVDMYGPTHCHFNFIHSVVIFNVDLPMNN
Assay: CD spectroscopy; CD spectra of SERA5 C (5 uM) in PBS pH 7.4 alone and with 5 uM peptide (1:1 molar ratio), 25 C
Settings: both partners purified

B1: heptapeptide DNSDNMF (D560 to F566 of SERA5 sequence) (peptide)
peptide: DNSDNMF
notes: C-terminal region of the prodomain of Plasmodium falciparum serine repeat antigen 5 (SERA5), residues D560 to F566; Made on Rink amide resin, so the C-terminus is probably an amide; also called the heptapeptide; the peptide; source: synthetic peptide (solid phase, Fmoc chemistry, Rink Amide MHBA resin; RP-HPLC purified)
B1: binds.
